Experiment: Release of FITC-BSA from emulsion-electrospun PU, PLA and co-spun fibers in PBS
Format: physicochemical
Procedure: Polymers were dissolved in organic solvent and emulsified with a H2O/Poly(vinyl alcohol) mixture with the molecule to be released dispersed in the aqueous phase. Polyurethane (PU) was dissolved at 6 wt % in a mixture of chloroform and tetrahydrofuran. PLA was dissolved at 2 wt % in chloroform. Drugs were loaded into the PVA/Water mixture with aqueous volume fractions ranging from 10-20 vol %. Emulsions were loaded into plastic syringe fitted with a blunt tip 18-gauge needle and placed into a syringe pump.
Circular discs were punched out from the aluminum foil and polymer fibers removed from Al-backing. Samples placed in centrifuge tubes individual glass vials with PBS. Samples degraded in at room temperature (20° C.) on a rotisserie. The buffer was sampled at given intervals. Depending on release molecule, different spectrophotometric techniques were used to measure release profiles.
The concentration was determined fluorometrically by measuring […] at λ=495 nm. Samples were placed in 10 ml of PBS and 200 μl of buffer was used to run the assay and not replaced (total amount withdrawn from tube was less than 40% of total volume). Average concentration plotted over 360 hour time course (n=3).

## FITC-BSA: fluorescein isothiocyanate conjugated albumin, a model protein
PU and PLA fibers
  duration over which release can be achieved: ≥ 15 days
co-spun PLA and PU fibers
  release from meshes of co-spun PLA and PU fibers relative to pure PLA or PU meshes: intermediate manner
Electrospun fibers
  release rate relative to doxycycline: much slower release rates

Reference: US20120058100A1, “MODULATION OF DRUG RELEASE RATE FROM ELECTROSPUN FIBERS” (priority 2006, published 2012)
